# Numbering of substitutions follows the chain as printed. Structures can show the parent of a compound that is named as a salt.
# B1: CTI-07 (antibody, V domains shown)
# VH: EVQLVQSGGEVKKPGASVKVSCKASGYTLSSHGITWVRQAPGQGLEWMGWISAHSGHASNAQKVEDRVTMTTDTSTNTAYMELRSLTADDTAVYYCARVHAALYYGMDVWGQGTLVTVSS
# VL: LSVLTQPPSVSVAPGQTARITCGGNNIGSKGVHWYQQKPGQAPVLVVYDDSDRPSGIPERFSGSNSGNTATLTISRVEAGDEADYYCQVWDSSSDHWVFGGGTKLTVL
# B2: CTI-58 (antibody, V domains shown)
# VH: B1 VH with Y105H
# VL: B1 VL
# B3: CTI-57 (antibody, V domains shown)
# VH: B1 VH with H100W, A101R, Y105H
# VL: B1 VL
# B4: CTI-48: fully human anti-PD-L1 IgG1; HCDR1-3 SEQ ID NO: 11, 19, 27; LCDR1-3 SEQ ID NO: 31, 33, 35 (antibody, chains of the INN, looked up, V domains shown)
# VH: EVQLVQSGAEVKKPGSSVKVSCKASGGTFSRSAISWVRQAPGQGLEWMGVIIPAFGEANYAQKFQGRVTITADESTSTAYMELSSLRSEDTAVYYCARGRQMFGAGIDFWGQGTLVTVSS
# VL: NFMLTQPHSVSESPGKTVTISCTRSSGSIDSNYVQWYQQRPGSAPTTVIYEDNQRPSGVPDRFSGSIDSSSNSASLTISGLKTEDEADYYCQSYDSNNRHVIFGGGTKLTVL
# Columns and labels:
# PI3K isoforms (Human) α = PI3K isoforms (Human) α (Homo sapiens, UniProt P42336); assay: biochemical
# [1] = oral TGR-1202 under fasted and fed conditions, pharmacokinetics; settings: in vivo, 200 mg, single oral dose of 200 mg; for AUC(0-inf): read-out: AUC0-inf, Geometric LS Means; for AUC(0-t): read-out: AUC0-t, Geometric LS Means; for Cmax: read-out: Cmax, Geometric LS Means
# PI3K isoforms (Human) γ = PI3K isoforms (Human) γ (Homo sapiens, UniProt P48736); assay: biochemical
# [2] = micronized vs non-micronized TGR-1202 formulations, pharmacokinetics; settings: in vivo, po, 200 mg, single oral dose of 200 mg; for AUC(0-inf): read-out: AUC0-inf, Geometric LS Means; for AUC(0-t): read-out: AUC0-t, Geometric LS Means; for Cmax: read-out: Cmax, Geometric LS Means
# [3] = test system: patients with relapsed and refractory hematologic malignancies; settings: single agent; relapsed or refractory hematologic malignancies; cited from earlier work
# PI3K isoforms (Human) β = PI3K isoforms (Human) β (Homo sapiens, UniProt P42338); assay: biochemical
# patients with CLL = settings: pembrolizumab alone; cited from earlier work
# [4] = target: T1, PD-L1 antigen of the ForteBio affinity measurement (Example 7) (UniProt Q9NZQ7 19-238, limits assumed); assay: ForteBio BLI, IgG on AHQ sensors, 100 nM antigen, 1:1 model
# [5] = target: T1, PD-L1 antigen of the ForteBio affinity …; assay: ForteBio BLI, IgG on AHQ sensors, 100 nM antigen, 1:1 model, monovalent
# [6] = target: T2, PD-L1 expressed on transfected CHO cells (UniProt Q9NZQ7 19-290); assay: competitive FACS on PD-L1+ CHO cells; competitor biotin-labeled PD-1 at 1 µg/ml
# T2 construct: whole, on cells; also called PD-L1+cells; PD-L-1+cells
# PD-L1 [7] = target: T3, PD-L1 (Homo sapiens, UniProt Q9NZQ7); assay: ForteBio affinity measurements; settings: 100 nM antigen, 1:1 binding model
# Description: ForteBio affinity measurements were performed generally as previously described (see, e.g., Estep, P. et al., mAbs 5:270-278 (2013)). Briefly, ForteBio affinity measurements were performed by loading IgGs on-line onto AHQ sensors. Sensors were equilibrated off-line in assay buffer for 30 minutes and then monitored on-line for 60 seconds for baseline establishment. Sensors with loaded IgGs were exposed to 100 nM antigen for 5 minutes; afterwards, they were transferred to assay buffer for 5 minutes for off-rate measurement. Kinetics were analyzed using the 1:1 binding model.
# SUDHL-1 lymphoma cells = assay: ADCC activity of anti-PD-L1 antibodies; type: cell-based; settings: PD-L1+ lymphoma cells with primary NK cells
# Description: Reporter bioassays were performed in order to determine antibody-dependent cell—mediates cytotoxicity (ADCC) of the disclosed anti-PD-L1 antibodies. The assays utilized SUDHL-1 lymphoma cells and donor PBMCs. Various antibodies were tested at concentrations of 1 or 3 μg/ml.
# The results of this study, which are shown for exemplary anti-PD-L1 antibody CTI-48 in FIG. 3, are represented by percent cytotoxicity following a 4 hour incubation with the disclosed antibodies.
# [8] = target: T4, binding of PD-L1 and B7.1 (Homo sapiens, UniProt Q9NZQ7); assay: PD-L1/B7.1 inhibitor screening assay; settings: PD-L1 coated plate, B7.1-biotin
# T4 construct: purchased
# From the text: A commercially available assay kit was used to screen and profile the interaction of the disclosed antibodies and the PD-L1/B7.1 interaction. The kit came in a 96-well format with biotin-labeled B7-1 (CD80), purified PD-L1, streptavidin-labeled HRP, and assay buffer for 100 binding reactions. The kit was used to detect biotin-labeled B7.1 by streptavidin-HRP.
# First, PD-L1 was coated on a 96-well plate. Next, either one of the disclosed antibodies, a positive control, a substrate control, or a blank was added to each well and incubated prior to the addition of B7.1-biotin. Finally, the plate was treated with streptavidin-HRP followed by addition of an HRP substrate to produce chemiluminescence, which can then be measured by a chemiluminescence reader.
# PD-L1 [9] = target: T3, PD-L1; settings: cited from earlier work
# PD-L1 [10] = target: T3, PD-L1; assay: Octet antibody binding kinetics
# Description: (§1) FIGS. 2A-2C are graphs showing the binding kinetics of exemplary anti-PD-L1 antibody CTI-48 against human PD-L1 (FIG. 2A), mouse PD-L1 (FIG. 2B), and cyno PD-L1 (FIG. 2C).
# (§2) Octet data analysis was used in determining affinity measurements to assess antibody binding kinetics. 2 mL of the loading sample was prepared at 20 ug/mL (default concentration) in kinetic buffer. Aliquot at least 200 uL into a black 96-well plate. Concentration ranges for the sample were based on the estimated KD of the interaction (if available). […] A 7-point dilution was made into the sample column using kinetic buffer as the sample diluent. The last well of the sample column was used as a reference well later in data analysis, should only contain kinetic buffer.
# (§3) Biosensors were hydrated in kinetic buffer (lx PBS, 0.1% BSA, 0.02% Tween20, 0.05% Sodium Azide) at room temperature for 10 minutes.
# IFN-γ production = IFN-γ production in mixed lymphocyte reaction (MLR) cultures; type: cell-based; settings: 4-day MLR culture, antibodies at 10 μg/mL, over control levels
# Description: FIG. 6 is a bar graph showing the effect of the disclosed PD-L1 antibodies on IFN-γ production. Antibodies were dosed into mixed lymphocyte reaction (MLR) cultures at a concentration of 10 μg/mL. Data were normalized to vehicle control and are presented as combined mean+SEM (n=6). *p<0.05**p<0.01,***p<0.001 indicates statistical significance when compared to appropriate isotype control (hIgG1) using Ordinary one-way ANOVA with Dunnett's multiple comparison post-hoc test.
# Antibodies were dosed into mixed lymphocyte reaction (MLR) cultures in order to determine the effects of the disclosed antibodies on IFN-γ production. The fold change in production of IFN-γ was determined after a 4-day MLR culture with antibodies at a concentration of 10 μg/mL. […] Further, many of the tested PD-L1 antibodies elicited a statistically significant increase in IFN-γ production, including a roughly 10-fold increase by CTI-33 and CTI-55 over control levels.
# cynoPDL1 = assay: Octet antibody binding kinetics; set-up: species or system cyno
# Description: as §1, §2, §3
# PD-1:PD-L1 ligation = assay: immunoblockade reporter (NFAT) assay, PD1/PD-L1 Blockade Assay Kit; type: cell-based; settings: Jurkat PD-1 Effector cells and aAPC PD-L1 cells
# Description: Immunoblockade assays were performed using a PD1/PD-L1 Blockade Assay Kit (Promega, CS187111) in 96 well plates. Three major events occur in the assay. Event 1: TCR-mediated NFAT activation occurs when engineered Jurkat PD-1 Effector cells and aAPC (artificial antigen presenting cell) PD-L1 cells are engaged through TCR/TCR activator interaction. Event 2: Inhibition of NFAT signal by PD-1:PD-L1 ligation when no blocking antibodies are present. Event 3: Recovery of NFAT signal by addition of anti-PD-1 or anti-PD-L1 blocking antibody.
# The day before assay, 25 mL of cell recovery medium (10% FBS/F-12) was made in 50 mL conical tubes for Thaw-and-Use PD-L1 cells by adding 2.5 mL FBS to 22.5 mL F-12. One vial of Thaw-and-Use PD-L1 cells (CS187103) was removed from freezer storage and transferred to the bench on dry ice. The vial was thawed in a 37° C. water bath until cells were just thawed (about 3-4 minutes). The cell suspension was gently mixed in the vial by pipetting up and down. All the cells (0.5 mL) were transferred to a tube labeled “PD-L1 cells” containing 14.5 mL cell recovery medium, followed by gentle inversions. […]
# Thaw-and-Use PD-1 Effector cells (CS187105) were transferred into the assay plates, and the plates were incubated for six hours at 37° C. in CO2 incubator. […] Luminescence was measured in a POLARstar Omega plate reader with 0.5 second integration.
# T3 sequence (Q9NZQ7 19-290): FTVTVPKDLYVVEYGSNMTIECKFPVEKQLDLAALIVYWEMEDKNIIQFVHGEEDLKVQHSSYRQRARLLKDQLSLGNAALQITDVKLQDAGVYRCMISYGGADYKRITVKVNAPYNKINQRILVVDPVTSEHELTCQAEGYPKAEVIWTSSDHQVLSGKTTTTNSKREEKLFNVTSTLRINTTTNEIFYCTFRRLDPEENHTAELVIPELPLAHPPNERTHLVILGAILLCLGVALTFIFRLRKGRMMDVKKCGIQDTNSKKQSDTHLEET
# T1 sequence (Q9NZQ7 19-238 limits assumed): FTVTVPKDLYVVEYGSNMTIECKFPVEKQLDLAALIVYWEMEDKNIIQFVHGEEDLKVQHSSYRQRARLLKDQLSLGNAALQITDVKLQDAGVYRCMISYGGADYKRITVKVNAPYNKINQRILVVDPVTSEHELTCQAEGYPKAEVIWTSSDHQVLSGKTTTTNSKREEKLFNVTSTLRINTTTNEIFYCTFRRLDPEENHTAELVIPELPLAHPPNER
# Chain of PI3K isoforms (Human) β (P42338 whole entry, canonical isoform): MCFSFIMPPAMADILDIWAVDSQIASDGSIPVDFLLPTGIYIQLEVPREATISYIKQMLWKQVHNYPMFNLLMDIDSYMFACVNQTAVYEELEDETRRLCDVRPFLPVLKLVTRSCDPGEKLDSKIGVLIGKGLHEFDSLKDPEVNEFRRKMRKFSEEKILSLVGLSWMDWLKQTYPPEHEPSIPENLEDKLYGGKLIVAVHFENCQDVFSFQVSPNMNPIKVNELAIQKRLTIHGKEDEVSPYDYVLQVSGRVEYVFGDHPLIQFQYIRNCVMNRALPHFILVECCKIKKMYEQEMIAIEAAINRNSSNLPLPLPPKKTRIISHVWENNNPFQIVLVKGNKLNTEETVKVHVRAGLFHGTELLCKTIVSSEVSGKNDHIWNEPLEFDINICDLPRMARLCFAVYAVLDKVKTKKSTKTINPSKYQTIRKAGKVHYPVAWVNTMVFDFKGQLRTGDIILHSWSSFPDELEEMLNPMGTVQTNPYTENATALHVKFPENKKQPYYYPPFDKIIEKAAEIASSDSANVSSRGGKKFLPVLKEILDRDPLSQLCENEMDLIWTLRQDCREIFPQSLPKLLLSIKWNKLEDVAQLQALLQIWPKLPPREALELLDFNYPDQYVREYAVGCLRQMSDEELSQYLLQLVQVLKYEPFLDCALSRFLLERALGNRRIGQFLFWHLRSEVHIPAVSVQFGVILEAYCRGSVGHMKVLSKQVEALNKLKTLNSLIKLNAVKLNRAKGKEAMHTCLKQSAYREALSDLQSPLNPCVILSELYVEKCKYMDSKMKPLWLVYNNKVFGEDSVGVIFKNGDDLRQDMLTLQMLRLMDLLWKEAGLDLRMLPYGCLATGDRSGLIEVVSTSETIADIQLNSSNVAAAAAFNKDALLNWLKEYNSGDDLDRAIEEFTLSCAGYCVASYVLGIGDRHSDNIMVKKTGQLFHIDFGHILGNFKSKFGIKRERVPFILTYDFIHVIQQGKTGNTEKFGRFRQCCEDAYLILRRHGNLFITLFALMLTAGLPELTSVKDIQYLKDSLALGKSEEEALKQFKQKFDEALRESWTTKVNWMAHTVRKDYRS
# Chain of PI3K isoforms (Human) β (P27986 whole entry partner, canonical isoform): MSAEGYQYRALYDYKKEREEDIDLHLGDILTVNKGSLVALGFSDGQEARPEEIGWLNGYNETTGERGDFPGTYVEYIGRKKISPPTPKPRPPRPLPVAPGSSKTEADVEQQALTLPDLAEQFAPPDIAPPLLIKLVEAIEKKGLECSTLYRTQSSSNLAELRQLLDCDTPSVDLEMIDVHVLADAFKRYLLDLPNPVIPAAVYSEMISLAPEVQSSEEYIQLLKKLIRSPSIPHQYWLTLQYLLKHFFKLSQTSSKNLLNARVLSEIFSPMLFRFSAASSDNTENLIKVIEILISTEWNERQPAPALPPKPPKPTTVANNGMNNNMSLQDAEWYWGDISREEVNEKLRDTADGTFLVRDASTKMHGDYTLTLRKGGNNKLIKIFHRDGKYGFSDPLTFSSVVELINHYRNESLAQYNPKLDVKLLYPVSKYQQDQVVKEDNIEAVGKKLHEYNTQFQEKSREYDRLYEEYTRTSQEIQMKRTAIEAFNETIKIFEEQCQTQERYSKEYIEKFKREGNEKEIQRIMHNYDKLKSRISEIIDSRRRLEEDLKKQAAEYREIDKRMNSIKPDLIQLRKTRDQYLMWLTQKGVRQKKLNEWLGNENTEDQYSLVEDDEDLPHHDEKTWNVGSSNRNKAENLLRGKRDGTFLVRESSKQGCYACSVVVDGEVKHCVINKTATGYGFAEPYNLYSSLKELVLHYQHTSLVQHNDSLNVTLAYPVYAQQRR
# Chain of PI3K isoforms (Human) α (P42336 whole entry, canonical isoform): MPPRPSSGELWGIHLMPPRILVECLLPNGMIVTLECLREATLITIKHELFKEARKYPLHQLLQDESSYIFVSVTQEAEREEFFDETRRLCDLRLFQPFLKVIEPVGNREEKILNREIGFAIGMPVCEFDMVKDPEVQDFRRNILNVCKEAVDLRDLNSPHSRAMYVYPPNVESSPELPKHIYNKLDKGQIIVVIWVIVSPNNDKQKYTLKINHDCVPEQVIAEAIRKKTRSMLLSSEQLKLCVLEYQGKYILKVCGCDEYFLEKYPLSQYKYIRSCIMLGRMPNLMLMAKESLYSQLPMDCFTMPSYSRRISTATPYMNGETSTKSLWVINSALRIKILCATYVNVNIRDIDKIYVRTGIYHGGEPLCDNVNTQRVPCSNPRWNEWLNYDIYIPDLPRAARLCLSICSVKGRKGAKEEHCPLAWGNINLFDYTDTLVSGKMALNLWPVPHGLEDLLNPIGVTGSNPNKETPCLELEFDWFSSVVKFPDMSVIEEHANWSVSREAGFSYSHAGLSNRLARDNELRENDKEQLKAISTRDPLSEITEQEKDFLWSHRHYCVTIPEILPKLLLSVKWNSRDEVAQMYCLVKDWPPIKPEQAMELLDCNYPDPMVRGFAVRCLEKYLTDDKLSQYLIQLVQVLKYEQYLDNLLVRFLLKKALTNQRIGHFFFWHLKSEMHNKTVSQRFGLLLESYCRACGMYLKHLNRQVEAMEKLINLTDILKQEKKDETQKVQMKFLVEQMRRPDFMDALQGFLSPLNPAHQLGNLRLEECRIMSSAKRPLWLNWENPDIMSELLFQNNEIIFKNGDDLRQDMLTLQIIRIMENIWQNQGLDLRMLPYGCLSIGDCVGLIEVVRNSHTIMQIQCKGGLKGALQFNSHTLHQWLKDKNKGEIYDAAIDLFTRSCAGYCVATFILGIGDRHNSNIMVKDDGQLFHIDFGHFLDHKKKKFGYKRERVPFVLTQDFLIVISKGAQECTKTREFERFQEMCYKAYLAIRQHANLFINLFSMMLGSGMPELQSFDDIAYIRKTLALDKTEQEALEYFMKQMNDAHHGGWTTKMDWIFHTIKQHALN
# Chain of PI3K isoforms (Human) α (P27986 whole entry partner, canonical isoform): as the sequence (P27986 whole entry partner, canonical isoform) above
# Chain of PI3K isoforms (Human) γ (P48736 whole entry, canonical isoform): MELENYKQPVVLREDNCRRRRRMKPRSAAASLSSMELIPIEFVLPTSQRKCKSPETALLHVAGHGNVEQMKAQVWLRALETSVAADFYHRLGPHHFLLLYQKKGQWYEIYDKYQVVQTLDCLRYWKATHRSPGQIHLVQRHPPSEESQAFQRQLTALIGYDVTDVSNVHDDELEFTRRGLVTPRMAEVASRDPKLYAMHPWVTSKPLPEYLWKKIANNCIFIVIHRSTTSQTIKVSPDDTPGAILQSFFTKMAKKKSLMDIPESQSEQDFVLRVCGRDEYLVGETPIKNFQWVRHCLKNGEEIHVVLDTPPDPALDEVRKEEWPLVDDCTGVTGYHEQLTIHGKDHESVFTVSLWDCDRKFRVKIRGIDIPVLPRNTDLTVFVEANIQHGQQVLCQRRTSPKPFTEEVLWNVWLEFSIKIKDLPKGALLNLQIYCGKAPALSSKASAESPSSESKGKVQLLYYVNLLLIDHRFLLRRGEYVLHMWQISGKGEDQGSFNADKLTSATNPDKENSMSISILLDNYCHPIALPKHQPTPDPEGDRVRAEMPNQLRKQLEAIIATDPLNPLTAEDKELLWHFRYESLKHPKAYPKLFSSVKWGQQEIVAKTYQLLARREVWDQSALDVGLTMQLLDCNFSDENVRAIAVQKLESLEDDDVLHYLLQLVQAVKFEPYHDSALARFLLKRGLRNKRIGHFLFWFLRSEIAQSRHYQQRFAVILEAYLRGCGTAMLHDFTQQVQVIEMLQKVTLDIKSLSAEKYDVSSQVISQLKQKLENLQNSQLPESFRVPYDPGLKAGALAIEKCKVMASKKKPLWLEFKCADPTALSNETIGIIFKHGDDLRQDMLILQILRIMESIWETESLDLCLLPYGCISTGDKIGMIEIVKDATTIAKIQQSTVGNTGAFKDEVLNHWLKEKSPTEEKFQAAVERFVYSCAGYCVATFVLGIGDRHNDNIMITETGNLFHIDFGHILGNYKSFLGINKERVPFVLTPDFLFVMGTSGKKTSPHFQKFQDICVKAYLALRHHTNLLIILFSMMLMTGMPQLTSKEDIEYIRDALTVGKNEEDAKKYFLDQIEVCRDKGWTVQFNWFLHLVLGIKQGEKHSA
# T2 sequence (Q9NZQ7 19-290): as the sequence (Q9NZQ7 19-290) above
# T4 sequence (Q9NZQ7 19-238 limits assumed): as the sequence (Q9NZQ7 19-238 limits assumed) above
molecule,measurement,setting,value
"CC(C)Oc1ccc(-c2nn([C@@H](C)c3oc4ccc(F)cc4c(=O)c3-c3cccc(F)c3)c3ncnc(N)c23)cc1F [TGR-1202, (S)-2-(1-(4-amino-3-(3-fluoro-4-isopropoxyphenyl)-1H-pyrazolo[3,4-d]pyrim-idin-1-yl)ethyl-6-fluoro-3-(3-fluorophenyl)-4H-chromen-4-one p-toluenesulfonic acid (PTSA) salt]",IC50,PI3K isoforms (Human) α,> 10000 nM
same,AUC(0-inf),[1]; Fasting,8390 ng·h/mL
same,AUC(0-t),[1]; Fasting,6030 ng·h/mL
same,Cmax,[1]; Fasting,177 ng/mL
same,AUC(0-inf),[1]; Fed,14000 ng·h/mL
same,AUC(0-t),[1]; Fed,9690 ng·h/mL
same,Cmax,[1]; Fed,483 ng/mL
same,IC50,PI3K isoforms (Human) γ,1060 nM
same,AUC(0-inf),[2]; Micronized Formulation,12400 ng·h/mL
same,AUC(0-t),[2]; Micronized Formulation,9440 ng·h/mL
same,Cmax,[2]; Micronized Formulation,372 ng/mL
same,AUC(0-inf),[2]; Non-Micronized Formulation,7720 ng·h/mL
same,AUC(0-t),[2]; Non-Micronized Formulation,5910 ng·h/mL
same,Cmax,[2]; Non-Micronized Formulation,166 ng/mL
same,hepatic toxicity,[3],no reported hepatic toxicity
same,tolerability,[3],well-tolerated
same,IC50,PI3K isoforms (Human) β,1120 nM
pembrolizumab: humanized monoclonal IgG4 kappa antibody directed against PD-1,ORR,patients with CLL,0%
same,median PFS,patients with CLL,2.4 months
B1,koff,[4],0.0392 s⁻¹
same,kon,[4],492000 M⁻¹ s⁻¹
same,Kd,[5],79.7 nM
B2,koff,[4],0.0111 s⁻¹
same,kon,[4],461000 M⁻¹ s⁻¹
same,Kd,[5],24.1 nM
same,IC50,[6],3.46 µg/mL
B3,koff,[4],0.00045 s⁻¹
same,kon,[4],520000 M⁻¹ s⁻¹
same,Kd,[5],0.86 nM
B4,koff,PD-L1 [7],0.000633 s⁻¹
same,kon,PD-L1 [7],768000 M⁻¹ s⁻¹
same,Kd,PD-L1 [7]; read-out: IgG KD (M) Monovalent,8.24e-10 M
same,ADCC activity,SUDHL-1 lymphoma cells,exhibits ADCC activity
same,IC50 for binding inhibition,[8],0.1816 µg/mL
same,binding affinity for PD-L1,PD-L1 [9],sub-nanomolar
same,Kd,PD-L1 [10],0.847 nM
same,kdis,PD-L1 [10],0.00061 L/s
same,kon,PD-L1 [10],7.20E+05 l/Ms
same,fold change in production of IFN-γ,IFN-γ production,comparable response to a clinical control mAb
same,Kd,cynoPDL1,0.555 nM
same,kdis,cynoPDL1,0.000635 L/s
same,kon,cynoPDL1,1.14E+06 l/Ms
same,"EC50, recovery of NFAT signal",PD-1:PD-L1 ligation,0.0775 µg/mL
